Three proteins from US20140051106 can be followed below.

Series [1] deals with RPS23 peptide (peptide fragment of the RPS23 protein).
The target of series [2] is T1, HIF-1α C-terminal oxygen dependent degradation domain (CODD) peptide, Q16665.
T1 chain: DLDLEMLAPYIPMDDDFQL

Series [3] addresses T2, HIF-1α C-terminal transcriptional activation domain (CTAD) peptide, Q16665.
T2 chain: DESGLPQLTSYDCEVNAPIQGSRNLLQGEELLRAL

In series [4] the target is T3, HIF-1α N-terminal oxygen dependent degradation domain (NODD) peptide, Q16665.
T3 chain: DALTLLAPAAGDTIISLDF

Another series deals with T4, RPS23 16mer.
T4 chain: EKVGVEAKQPNSAIRK

A further series addresses T5, RPS23 20mer C19A.
T5 chain: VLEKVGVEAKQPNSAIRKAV

A further series addresses T6, RPS23 20mer E08A.
T6 chain: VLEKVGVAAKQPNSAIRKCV

The target of a further series is T7, RPS23 20mer G06A.
T7 chain: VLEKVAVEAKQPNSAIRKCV

Another series concerns the target T8, RPS23 20mer I16A.
T8 chain: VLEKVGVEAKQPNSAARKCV

For the next series, the target named is T9, RPS23 20mer K04A.
T9 chain: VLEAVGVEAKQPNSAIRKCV

For the next series, the target named is T10, RPS23 20mer K10A.
T10 chain: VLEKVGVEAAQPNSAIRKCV

For the next series, the target named is T11, RPS23 20mer K18A.
T11 chain: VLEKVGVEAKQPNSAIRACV

In a further series the target is T12, RPS23 20mer N13A.
T12 chain: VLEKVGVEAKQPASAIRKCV

The next series has as its target T13, RPS23 20mer P12A.
T13 chain: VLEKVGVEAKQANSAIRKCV

In a further series the target is T14, RPS23 20mer P12I.
T14 chain: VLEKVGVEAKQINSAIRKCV

In the next series the target is T15, RPS23 20mer Q11A.
T15 chain: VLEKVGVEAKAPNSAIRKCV

Another series has as its target T16, RPS23 20mer S14A.
T16 chain: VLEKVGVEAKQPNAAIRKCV

For another series, the target named is T17, RPS23 20mer V05A.
T17 chain: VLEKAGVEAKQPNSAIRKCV

The target in a further series is T18, RPS23 20mer V07A.
T18 chain: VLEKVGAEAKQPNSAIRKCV

Series [5] addresses T19, S. Cerevisiae RPS23 peptide.
T19 chain: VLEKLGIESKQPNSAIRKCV

The target of a further series is T20, S. Pombe RPS23 peptide.
T20 chain: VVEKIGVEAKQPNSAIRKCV

Series [6] concerns the target histone fragment peptides.

B1: H155A mutant of full-length human OGFOD1 (protein)
chain: MGSSHHHHHHSSGLVPRGSHMASMNGKRPAEPGPARVGKKGKKEVMAEFSDAVTEETLKKQVAEAWSRRTPFSHEVIVMDMDPFLHCVIPNFIQSQDFLEGLQKELMNLDFHEKYNDLYKFQQSDDLKKRREPHISTLRKILFEDFRSWLSDISKIDLESTIDMSCAKYEFTDALLCADDELEGRRIAFILYLVPPWDRSMGGTLDLYSIDEHFQPKQIVKSLIPSWNKLVFFEVSPVSFHQVSEVLSEEKSRLSISGWFHGPSLTRPPNYFEPPIPRSPHIPQDHEILYDWINPTYLDMDYQVQIQEEFEESSEILLKEFLKPEKFTKVCEALEHGHVEWSSRGPPNKRFYEKAEESKLPEILKECMKLFRSEALFLLLSNFTGLKLHFLAPSEEDEMNDKKEAETTDITEEGTSHSPPEPENNQMAISNNSQQSNEQTDPEPEENETKKESSVPMCQGELRHWKTGHYTLIHDHSKAEFALDLILYCGCEGWEPEYGGFTSYIAKGEDEELLTVNPESNSLALVYRDRETLKFVKHINHRSLEQKKTFPNRTGFWDFSFIYYE
As for B1, the “MALDI mass spectrometry, +16 mass shift” value in series [1] is “no such change was detectable with the H155A or D157A variants under standard assay conditions”.

B2: D157A mutant of full-length human OGFOD1 (protein)
chain: MGSSHHHHHHSSGLVPRGSHMASMNGKRPAEPGPARVGKKGKKEVMAEFSDAVTEETLKKQVAEAWSRRTPFSHEVIVMDMDPFLHCVIPNFIQSQDFLEGLQKELMNLDFHEKYNDLYKFQQSDDLKKRREPHISTLRKILFEDFRSWLSDISKIDLESTIDMSCAKYEFTDALLCADAELEGRRIAFILYLVPPWDRSMGGTLDLYSIDEHFQPKQIVKSLIPSWNKLVFFEVSPVSFHQVSEVLSEEKSRLSISGWFHGPSLTRPPNYFEPPIPRSPHIPQDHEILYDWINPTYLDMDYQVQIQEEFEESSEILLKEFLKPEKFTKVCEALEHGHVEWSSRGPPNKRFYEKAEESKLPEILKECMKLFRSEALFLLLSNFTGLKLHFLAPSEEDEMNDKKEAETTDITEEGTSHSPPEPENNQMAISNNSQQSNEQTDPEPEENETKKESSVPMCQGELRHWKTGHYTLIHDHSKAEFALDLILYCGCEGWEPEYGGFTSYIAKGEDEELLTVNPESNSLALVYRDRETLKFVKHINHRSLEQKKTFPNRTGFWDFSFIYYE
As for B2, in series [1], the “MALDI mass spectrometry, +16 mass shift” value is on record as “no such change was detectable with the H155A or D157A variants under standard assay conditions”.

B3: recombinant full-length human OGFOD1 (protein)
chain: MNGKRPAEPGPARVGKKGKKEVMAEFSDAVTEETLKKQVAEAWSRRTPFSHEVIVMDMDPFLHCVIPNFIQSQDFLEGLQKELMNLDFHEKYNDLYKFQQSDDLKKRREPHISTLRKILFEDFRSWLSDISKIDLESTIDMSCAKYEFTDALLCHDDELEGRRIAFILYLVPPWDRSMGGTLDLYSIDEHFQPKQIVKSLIPSWNKLVFFEVSPVSFHQVSEVLSEEKSRLSISGWFHGPSLTRPPNYFEPPIPRSPHIPQDHEILYDWINPTYLDMDYQVQIQEEFEESSEILLKEFLKPEKFTKVCEALEHGHVEWSSRGPPNKRFYEKAEESKLPEILKECMKLFRSEALFLLLSNFTGLKLHFLAPSEEDEMNDKKEAETTDITEEGTSHSPPEPENNQMAISNNSQQSNEQTDPEPEENETKKESSVPMCQGELRHWKTGHYTLIHDHSKAEFALDLILYCGCEGWEPEYGGFTSYIAKGEDEELLTVNPESNSLALVYRDRETLKFVKHINHRSLEQKKTFPNRTGFWDFSFIYYE
As for B3, the Hydroxylation result is “-” with E. Coli S12 peptide; “+” with RPS23 16mer; “++” with RPS23 20mer; “++” with RPS23 20mer C19A; “++” with RPS23 20mer E08A; “++” with RPS23 20mer G06A. The Hydroxylation result in the series with RPS23 20mer I16A is recorded as “++”; with RPS23 20mer K04A, “++”; in the series with RPS23 20mer K10A it was “++”; with RPS23 20mer K18A, “++”; with RPS23 20mer N13A it was “+”; with RPS23 20mer P12A, “-”. For the same protein, the Hydroxylation result was “-” in the series with RPS23 20mer P12I; “++” with RPS23 20mer Q11A; “+” in the series with RPS23 20mer S14A; “++” with RPS23 20mer V05A; “++” with RPS23 20mer V07A; “++” in series [5]. In the series with S. Pombe RPS23 peptide, the Hydroxylation entry is “++”. Also, the “Hydroxylation (MALDI assay)” value in series [2] is listed as “No hydroxylation of the PHD2 C-terminal oxygen-dependent degradation domain (CODD) substrate by OGFOD1 was observed under the same assay conditions”. Further, the “MALDI-TOF, +16 Da mass shift characteristic of hydroxylation” value in series [2], in series [3] and in [4] was “None of these potential substrates displayed evidence of a +16 Da mass shift characteristic of hydroxylation” in each case. Besides, in the series with RPS23 20mer, the “amino acid analysis of the enzymatic product” value is recorded as “The results clearly demonstrate the presence of trans-3-hydroxyproline in the enzymatic product”. Besides, in series [1], the 2OG turnover assay entry is “Activity is also stimulated significantly in the presence of a peptide fragment of the RPS23 protein”. In addition, the “MALDI mass spectrometry, +16 mass shift” value in series [1] is given as “a clear +16 mass shift was observed upon incubation of RPS23 peptide with wild-type OGFOD1”. Further, the “MALDI-TOF, demethylation” value in series [6] was “Neither did we find that OGFOD1 catalyzed N^ε-methyl-lysine or arginyl demethylation of histone fragment peptides”.
